In US20210032365A1 (Chugai, published 2021):
Changes are numbered by the printed parent chain.

B1: C1_IPN92H0091-SG4GK/IPN93L0024-SK1 (antibody, human IgG4 S228P, kappa, name in Kabat numbering, V domains shown)
VH: EVMLVESGGGLVKPGGSLRLSCAASGFTFSNYAKSWVRQAPGKGLEWVATISSGGSHTYYLDSVKGRFTISRDNSKDTLYLQMNSLRAEDTALYYCARLFTGHAMDYWGQGTLVTVSS
VL: QIVLTQSPATLSLSPGERATLSCTASSSVSSSYLHWYQQKPGKAPKLWIYSTSNLASGVPSRFSGSGSGTDYTLTISSLQPEDFATYYCHQYYRLHPITFGQGTKLEIKR
notes: Substitutions from IPN009VH2, Kabat numbering; also called IPN92H0091/IPN93L0024
B2: C1_IPN92H0117-SG4GK/IPN93L0024-SK1 (antibody, human IgG4 S228P, kappa, name in Kabat numbering, V domains shown)
VH: B1 VH with K34M, S53Q
VL: B1 VL
notes: Substitutions from IPN009VH2, Kabat numbering; also called IPN92H0117/IPN93L0024
B3: C1_IPN92H0144-SG4GK/IPN93L0024-SK1 (antibody, human IgG4 S228P, kappa, name in Kabat numbering, V domains shown)
VH: B1 VH with K34M, H57K
VL: B1 VL
notes: Substitutions from IPN009VH2, Kabat numbering; also called IPN92H0144/IPN93L0024
B4: C1_IPN92H0145-SG4GK/IPN93L0024-SK1 (antibody, human IgG4 S228P, kappa, name in Kabat numbering, V domains shown)
VH: B1 VH with K34M, H57R
VL: B1 VL
notes: Substitutions from IPN009VH2, Kabat numbering; also called IPN92H0145/IPN93L0024
B5: C1_IPN92H0147-SG4GK/IPN93L0024-SK1 (antibody, human IgG4 S228P, kappa, name in Kabat numbering, V domains shown)
VH: B1 VH with K34M, T58D
VL: B1 VL
notes: Substitutions from IPN009VH2, Kabat numbering; also called IPN92H0147/IPN93L0024
B6: C1_IPN92H0156-SG4GK/IPN93L0024-SK1 (antibody, human IgG4 S228P, kappa, name in Kabat numbering, V domains shown)
VH: B1 VH with K34M, Y59K
VL: B1 VL
notes: Substitutions from IPN009VH2, Kabat numbering; also called IPN92H0156/IPN93L0024
B7: C1_IPN92H0157-SG4GK/IPN93L0024-SK1 (antibody, human IgG4 S228P, kappa, name in Kabat numbering, V domains shown)
VH: B1 VH with K34M, Y59R
VL: B1 VL
notes: Substitutions from IPN009VH2, Kabat numbering; also called IPN92H0157/IPN93L0024
B8: C1_IPN92H0159-SG4GK/IPN93L0024-SK1 (antibody, human IgG4 S228P, kappa, name in Kabat numbering, V domains shown)
VH: B1 VH with K34M, Y60D
VL: B1 VL
notes: Substitutions from IPN009VH2, Kabat numbering; also called IPN92H0159/IPN93L0024
B9: C1_IPN92H0160-SG4GK/IPN93L0024-SK1 (antibody, human IgG4 S228P, kappa, name in Kabat numbering, V domains shown)
VH: B1 VH with K34M, Y60E
VL: B1 VL
notes: Substitutions from IPN009VH2, Kabat numbering; also called IPN92H0160/IPN93L0024

Legend:
human C1s [1] = target: T1, human C1s (human, UniProt P09871 16-688); experiment: SPR; KD at pH 5.8 (1.2 mM Ca) over KD at pH 7.4 (1.2 mM Ca)
T1 construct: Analyte in the Biacore assays; also called hC1s; serum-derived human C1s (CompTech)
T1 sequence: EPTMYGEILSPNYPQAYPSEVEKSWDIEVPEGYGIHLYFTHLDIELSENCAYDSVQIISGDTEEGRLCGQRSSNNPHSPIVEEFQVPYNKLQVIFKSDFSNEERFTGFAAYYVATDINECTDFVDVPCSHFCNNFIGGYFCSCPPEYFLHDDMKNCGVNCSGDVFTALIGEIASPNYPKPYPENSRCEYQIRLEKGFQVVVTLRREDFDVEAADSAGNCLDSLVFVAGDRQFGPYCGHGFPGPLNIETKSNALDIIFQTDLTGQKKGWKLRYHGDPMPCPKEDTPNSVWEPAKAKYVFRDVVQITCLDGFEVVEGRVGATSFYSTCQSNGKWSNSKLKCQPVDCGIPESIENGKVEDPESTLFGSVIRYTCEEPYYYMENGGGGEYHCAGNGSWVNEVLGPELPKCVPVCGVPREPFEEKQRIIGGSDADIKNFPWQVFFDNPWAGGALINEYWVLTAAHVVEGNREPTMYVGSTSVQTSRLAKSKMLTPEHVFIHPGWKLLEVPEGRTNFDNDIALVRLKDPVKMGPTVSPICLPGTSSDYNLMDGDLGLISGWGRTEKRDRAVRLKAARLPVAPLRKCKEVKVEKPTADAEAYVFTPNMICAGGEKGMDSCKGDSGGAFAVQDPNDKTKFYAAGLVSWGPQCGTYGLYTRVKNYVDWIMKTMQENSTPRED
Protocol: (§1) Each antibody was captured onto the sensor surface by protein A/G. Antibody capture levels were aimed at 200 resonance unit (RU). Serum-derived human C1s (CompTech) or recombinant C1s prepared in EXAMPLE 1 was injected at 50 nM, followed by dissociation. The sensor surface was regenerated in each cycle with 10 mM Glycine-HCl, pH 1.5. […] The ratio of KD 5.8+ to KD 7.4+(“KD 5+/7+”) and that of KD 5.8− to KD 7.4+(“KD 5−/7+”) were calculated. When the KD 5+/7+ or KD 5−/7+ of a variant is larger than that of the parent antibody IPN009VH2-SG4GK/IPN009VK3-SK1, that variant is considered to be “pH”- or “pH and Ca”-dependent, respectively. When binding response in 5(+) buffer and/or in 5(−) buffer of a variant is much lower than that of IPN09VH2/IPN009VK3, that variant is also considered as “pH”- and/or “pH and Ca”-dependent. Therefore, such mutations are effective to generate “pH”- and/or “pH and Ca”-dependent antibody. To further enhance “pH” and/or “pH and Ca” dependency, a combination of histidine mutations was conducted. Antibodies with combinations of histidine mutations were evaluated using Biacore by the method described above.
(§2) C1_1IPN92H0033 (SEQ ID NO: 17)-SG4GK/IPN93L0024 (SEQ ID NO: 18)-SK1 (IPN92H0033/IPN93L0024) was selected for further optimization. Histidine, Lysine, Arginine, aspartic acid, glutamic acid, and glutamine scanning was conducted for CDRs and certain positions of FRs of IPN92H0033/IPN93L0024. Variants with a mutation were generated and purified, and evaluated using Biacore by the method mentioned above. All variants were evaluated using Biacore as mentioned above. Mutations that improved “pH” and/or “pH and Ca” dependency were selected for the combination.

human C1s [2] = target: T1, human C1s; experiment: SPR (Biacore T200, 37C), Ab captured on protein A/G; pH 5.8, 3 uM Ca
Protocol: as §1, §2

human C1s [3] = target: T1, human C1s; experiment: SPR; KD at pH 5.8 (3 uM Ca) over KD at pH 7.4 (1.2 mM Ca)
Protocol: as §1, §2

human C1s [4] = target: T1, human C1s; experiment: SPR (Biacore T200, 37C), Ab captured on protein A/G; pH 5.8, 1.2 mM Ca
Protocol: as §1, §2

Row | Binder | KD 5(+)/7(+) (human C1s [1]) | Kd (human C1s [2]) [nM] | koff (human C1s [2]) [s⁻¹] | kon (human C1s [2]) [M⁻¹ s⁻¹] | KD 5(-)/7(+) (human C1s [3]) | Kd (human C1s [4]) [nM] | koff (human C1s [4]) [s⁻¹] | kon (human C1s [4]) [M⁻¹ s⁻¹]
1 | B1 | 4.5 | 3.43 | 2.67 | 7.8e+08 | 1.28 | 12 | 0.00634 | 530000
2 | B2 | 3.8 | 7.71 | 0.00542 | 703000 | 2.26 | 13.1 | 0.00799 | 610000
3 | B3 | 6.4 | 5.65 | 0.00317 | 562000 | 1.54 | 23.4 | 0.0265 | 1.13e+06
4 | B4 | 4.1 | 6.4 | 0.003 | 469000 | 1.36 | 19.2 | 0.0496 | 2.58e+06
5 | B5 | 6.4 | 3.23 | – | – | 1.58 | 13.2 | 0.00589 | 445000
6 | B6 | 7 | 9.8 | 0.00632 | 645000 | 4.62 | 14.8 | 0.00948 | 641000
7 | B7 | 9.3 | 10.3 | 0.00583 | 564000 | 5.07 | 18.8 | 0.012 | 636000
8 | B8 | 8.1 | 7.36 | 0.00401 | 544000 | 3.57 | 16.6 | 0.00699 | 421000
9 | B9 | 9 | 7.32 | 0.00411 | 562000 | 4.82 | 13.7 | 0.00634 | 461000
